Source: publication PMC12102760 (Protein Science : A Publication of the Protein Society, 2025)

Experiments:
[1] = target: T1, EphA2 extracellular domain (ECD) (human, UniProt P29317); test: SPR; EphA2 ECD immobilised by amine coupling on GLC chip, Fabs from 100 nM in three-fold dilutions, PBS, 25°C, 1:1 Langmuir model; details: both partners purified
T1 construct: EphA2, human, extracellular domain (LBD, CRD, FN1, FN2); The catalogue number is printed for the SEC and the selections; also called EphA2 ECD; EphA2-His; source: bought: R&D Systems (3035-A2)
T1 sequence (P29317 24-537): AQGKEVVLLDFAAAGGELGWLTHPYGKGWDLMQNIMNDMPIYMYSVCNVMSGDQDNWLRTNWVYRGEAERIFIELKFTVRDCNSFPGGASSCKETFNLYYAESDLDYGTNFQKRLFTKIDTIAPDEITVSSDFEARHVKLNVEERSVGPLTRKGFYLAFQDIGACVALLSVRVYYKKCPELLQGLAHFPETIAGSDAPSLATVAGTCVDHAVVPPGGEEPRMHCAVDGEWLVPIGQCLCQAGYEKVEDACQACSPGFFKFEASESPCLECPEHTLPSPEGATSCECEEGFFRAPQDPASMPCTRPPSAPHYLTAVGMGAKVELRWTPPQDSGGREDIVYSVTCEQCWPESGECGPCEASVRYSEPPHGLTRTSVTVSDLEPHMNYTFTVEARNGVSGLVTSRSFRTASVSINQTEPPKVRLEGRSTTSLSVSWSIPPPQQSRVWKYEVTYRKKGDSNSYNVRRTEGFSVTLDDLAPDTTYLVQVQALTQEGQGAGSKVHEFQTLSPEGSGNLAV

[2] = target: the molecule itself; test: crystal structure; Fab^S1CEL1 with EphA2 LBD-CRD, 4.6 Å; 16% PEG 8000, 100 mM CHES pH 9.0, 200 mM magnesium sulfate; one Fab and two LBD-CRD in the asymmetric unit
EphA2-Fc = target: T2, EphA2-Fc (Homo sapiens, UniProt P29317); test: BLI; IgG captured on anti-human biosensors, quenched with Fc; receptor ECD-Fc in solution, three-fold dilutions from 300 nM; PBS, 1% BSA, 0.05% Tween 20; 25°C; 1:1 binding model; details: both partners purified
T2 construct: EphA2, human, extracellular domain; Eph ECDs used for the phage selections were from R&D; also called EphA2 ECD
T2 sequence (P29317 24-537): as above

EphA4-Fc = target: T3, EphA4-Fc (Homo sapiens, UniProt P54764); test: as above; details: both partners purified
T3 construct: EphA4, human, extracellular domain
T3 sequence (P54764 20-547): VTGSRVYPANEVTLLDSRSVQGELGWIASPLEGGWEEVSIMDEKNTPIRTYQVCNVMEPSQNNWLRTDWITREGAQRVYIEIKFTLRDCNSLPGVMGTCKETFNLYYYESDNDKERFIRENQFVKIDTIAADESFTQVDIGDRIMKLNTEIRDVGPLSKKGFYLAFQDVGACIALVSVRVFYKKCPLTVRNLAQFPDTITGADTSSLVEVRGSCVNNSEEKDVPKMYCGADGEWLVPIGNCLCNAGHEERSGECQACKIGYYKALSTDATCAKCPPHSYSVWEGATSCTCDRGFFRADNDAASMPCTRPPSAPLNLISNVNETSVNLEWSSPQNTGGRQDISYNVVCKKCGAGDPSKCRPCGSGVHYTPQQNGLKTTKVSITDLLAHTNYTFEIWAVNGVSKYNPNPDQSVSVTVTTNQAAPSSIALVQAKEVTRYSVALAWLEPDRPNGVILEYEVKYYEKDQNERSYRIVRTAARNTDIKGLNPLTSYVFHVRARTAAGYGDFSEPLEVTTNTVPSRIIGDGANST

EphA8-Fc = target: T4, EphA8-Fc (Homo sapiens, UniProt P29322); test: as above; details: both partners purified
T4 construct: EphA8, human, extracellular domain
T4 sequence (P29322 28-542): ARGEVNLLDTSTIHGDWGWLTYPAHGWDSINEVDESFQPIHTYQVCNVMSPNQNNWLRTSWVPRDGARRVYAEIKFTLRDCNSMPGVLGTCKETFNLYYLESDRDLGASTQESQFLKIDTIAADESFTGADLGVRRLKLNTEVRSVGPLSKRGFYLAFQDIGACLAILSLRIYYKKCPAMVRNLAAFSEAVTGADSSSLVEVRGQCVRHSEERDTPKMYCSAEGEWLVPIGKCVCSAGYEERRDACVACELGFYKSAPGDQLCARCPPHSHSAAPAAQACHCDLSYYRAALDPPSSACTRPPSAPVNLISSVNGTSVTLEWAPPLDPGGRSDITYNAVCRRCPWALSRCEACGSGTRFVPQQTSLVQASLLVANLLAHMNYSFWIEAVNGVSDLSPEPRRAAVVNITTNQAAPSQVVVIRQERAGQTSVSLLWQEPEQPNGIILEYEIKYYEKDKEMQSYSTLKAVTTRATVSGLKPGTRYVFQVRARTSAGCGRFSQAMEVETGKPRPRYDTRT

B1: Fab C1 (Fab, V domains shown)
VH: EVQLVESGGGLVQPGGSLRLSCAASGFTIYYSSMHWVRQAPGKGLEWVASISSYYGYTYYADSVKGRFTISADTSKNTAYLQMNSLRAEDTAVYYCARYYAMDYWGQGTLVTVSS
VL: DIQMTQSPSSLSASVGDRVTITCRASQSVSSAVAWYQQKPGKAPKLLIYSASSLYSGVPSRFSGSRSGTDFTLTISSLQPEDFATYYCQQYYGYGGYPITFGQGTKVEIK
notes: synthetic Fab from phage library F; The deposited chains carry crystallisation-enhancing framework substitutions that this Fab lacks; source: E. coli BL21, purified (Protein A)
Kd [1]: < 1 nM

B2: EphA2 LBD-CRD (residues 23-326) (domain or fragment, human, UniProt P29317 23-326, looked up)
chain: AAQGKEVVLLDFAAAGGELGWLTHPYGKGWDLMQNIMNDMPIYMYSVCNVMSGDQDNWLRTNWVYRGEAERIFIELKFTVRDCNSFPGGASSCKETFNLYYAESDLDYGTNFQKRLFTKIDTIAPDEITVSSDFEARHVKLNVEERSVGPLTRKGFYLAFQDIGACVALLSVRVYYKKCPELLQGLAHFPETIAGSDAPSLATVAGTCVDHAVVPPGGEEPRMHCAVDGEWLVPIGQCLCQAGYEKVEDACQACSPGFFKFEASESPCLECPEHTLPSPEGATSCECEEGFFRAPQDPASMPCT
notes: EphA2, human, LBD-CRD, residues 23-326; A thrombin cleavage site precedes the C-terminal hexahistidine tag; also called LBD-CRD1; LBD-CRD2; source: kifunensine culture, deglycosylated by endoH
binding result [2]: binds

B3: IgG L1 (antibody, V domains shown)
VH: EVQLVESGGGLVQPGGSLRLSCAASGFTISSSYIHWVRQAPGKGLEWVASISSYYGSTSYADSVKGRFTISADTSKNTAYLQMNSLRAEDTAVYYCARSHYSVWWGWHSVSYYAAFDYWGQGTLVTVSS
VL: DIQMTQSPSSLSASVGDRVTITCRASQSVSSAVAWYQQKPGKAPKLLIYSASSLYSGVPSRFSGSRSGTDFTLTISSLQPEDFATYYCQQGSAPFTFGQGTKVEIK
notes: full-length IgG constant region not specified; as the light chain of m12; Bivalent full-length IgG; also called L1 IgG; Ab L1; source: mammalian cells, purified; copies: 2 + 2
Kd (EphA2-Fc): 0.27 nM | binding result (EphA4-Fc): no binding (tested: 300 nM) | binding result (EphA8-Fc): no binding (tested: 300 nM)

B4: Fab L1 (Fab, V domains shown)
VH: B3 VH
VL: B3 VL
notes: as for B1
Kd [1]: < 1 nM

B5: Fab F1 (Fab, V domains shown)
VH: EVQLVESGGGLVQPGGSLRLSCAASGFDSGAYLRHWVRQAPGKGLEWVASIYPSYGYTSYADSVKGRFTISADTSKNTAYLQMNSLRAEDTAVYYCARSAASYYGYWHWYHFSPGMDYWGQGTLVTVSS
VL: DIQMTQSPSSLSASVGDRVTITCRASQSVSSAVAWYQQKPGKAPKLLIYSASDLYSGVPSRFSGSRSGTDFTLTISSLQPEDFATYYCQQYVSGGWLITFGQGTKVEIK
notes: Fab^S1F1 in PDB 8T7F (chains C and G, heavy and light chain); Optimised from the parental Fab F1′ (Enderle et al., 2021); The deposited chains carry framework substitutions that this Fab lacks; source: E. coli BL21, purified (Protein A)
Kd [1]: < 1 nM
